According to paper PMC9482650, “Quantitative fragmentomics allow affinity mapping of interactomes” (Nature Communications, 2022):

Legend:
Test in all cases: holdup assay
Set-up in all cases: key: below the threshold = too weak to quantify, mostly under pKd 3.1 to 4
TIAM2, Q8IVF5 = molecular target: T1, TIAM2, Q8IVF5; details: plain residues with an end cap or a label only (N-terminal biotin on a linker: ttds)
T1 sequence (Q8IVF5 885-986, limits assumed, looked up): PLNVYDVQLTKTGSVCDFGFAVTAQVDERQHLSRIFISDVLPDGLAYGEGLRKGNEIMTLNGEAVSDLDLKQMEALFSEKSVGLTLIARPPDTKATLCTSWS

LRRC7, Q96NW7 = molecular target: T2, LRRC7, Q96NW7
T2 sequence (Q96NW7 1440-1537, limits assumed, looked up): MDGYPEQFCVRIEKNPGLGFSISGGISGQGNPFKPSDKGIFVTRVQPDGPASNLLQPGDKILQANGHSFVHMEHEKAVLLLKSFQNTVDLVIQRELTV

GRIP2_4, Q9C0E4 = molecular target: GRIP2_4, Q9C0E4
Chain of GRIP2_4, Q9C0E4 (Q9C0E4 446-548): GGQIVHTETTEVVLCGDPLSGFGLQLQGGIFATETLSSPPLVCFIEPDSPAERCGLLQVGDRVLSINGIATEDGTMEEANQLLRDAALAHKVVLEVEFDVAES

DFNB31_2, Q9P202 = molecular target: T3, DFNB31_2, Q9P202; details: plain residues with an end cap or a label only (N-terminal biotin on a linker: ttds)
T3 sequence (Q9P202 274-371, limits assumed, looked up): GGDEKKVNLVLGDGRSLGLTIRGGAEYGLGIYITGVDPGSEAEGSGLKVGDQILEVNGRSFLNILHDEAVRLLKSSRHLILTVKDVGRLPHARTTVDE

LNX2_2, Q8N448 = molecular target: T4, LNX2_2, Q8N448
T4 sequence (Q8N448 334-432, limits assumed, looked up): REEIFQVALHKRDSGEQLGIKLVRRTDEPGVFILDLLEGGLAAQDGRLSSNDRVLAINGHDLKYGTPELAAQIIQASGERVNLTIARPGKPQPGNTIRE

GRIP2_3, Q9C0E4 = details: plain residues with an end cap or a label only (N-terminal biotin on a linker: ttds)
Chain of GRIP2_3, Q9C0E4 (Q9C0E4 238-339): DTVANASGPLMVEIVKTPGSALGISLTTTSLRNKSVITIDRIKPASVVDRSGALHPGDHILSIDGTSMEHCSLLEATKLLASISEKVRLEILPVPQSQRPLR

DLG1_2, Q12959 = molecular target: DLG1_2, Q12959
Chain of DLG1_2, Q12959 (Q12959 314-412): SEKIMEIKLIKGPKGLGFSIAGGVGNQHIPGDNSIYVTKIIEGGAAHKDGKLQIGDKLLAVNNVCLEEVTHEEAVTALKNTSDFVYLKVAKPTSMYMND

Inadl_3, Q8NI35 = details: plain residues with an end cap or a label only (N-terminal biotin on a linker: ttds)
Chain of Inadl_3, Q8NI35 (Q8NI35 359-469): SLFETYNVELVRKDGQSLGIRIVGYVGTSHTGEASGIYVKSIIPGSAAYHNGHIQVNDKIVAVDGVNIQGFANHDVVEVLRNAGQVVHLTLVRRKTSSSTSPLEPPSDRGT

HTRA1, Q92743 = details: plain residues with an end cap or a label only (N-terminal biotin on a linker: ttds)
Chain of HTRA1, Q92743 (Q92743 360-477): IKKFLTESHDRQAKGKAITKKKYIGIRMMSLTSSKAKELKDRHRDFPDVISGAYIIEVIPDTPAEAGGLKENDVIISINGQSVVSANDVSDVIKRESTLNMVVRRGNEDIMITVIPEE

DFNB31_1, Q9P202 = molecular target: T5, DFNB31_1, Q9P202
T5 sequence (Q9P202 135-233, limits assumed, looked up): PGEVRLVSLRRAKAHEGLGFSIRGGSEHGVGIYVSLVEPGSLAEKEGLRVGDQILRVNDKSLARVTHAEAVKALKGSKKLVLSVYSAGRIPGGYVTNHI

IL16_1, Q14005 = molecular target: IL16_1, Q14005
Chain of IL16_1, Q14005 (Q14005 210-306): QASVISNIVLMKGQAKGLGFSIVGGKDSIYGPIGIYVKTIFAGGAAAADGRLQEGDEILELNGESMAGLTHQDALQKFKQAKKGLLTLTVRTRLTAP

MAST2, Q6P0Q8 = details: plain residues with an end cap or a label only (N-terminal biotin on a linker: ttds)
Chain of MAST2, Q6P0Q8 (Q6P0Q8 1099-1202): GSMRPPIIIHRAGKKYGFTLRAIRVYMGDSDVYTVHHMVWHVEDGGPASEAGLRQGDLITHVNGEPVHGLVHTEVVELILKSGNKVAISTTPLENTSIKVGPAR

Inadl_8, Q8NI35 = molecular target: Inadl_8, Q8NI35
Chain of Inadl_8, Q8NI35 (Q8NI35 1425-1530): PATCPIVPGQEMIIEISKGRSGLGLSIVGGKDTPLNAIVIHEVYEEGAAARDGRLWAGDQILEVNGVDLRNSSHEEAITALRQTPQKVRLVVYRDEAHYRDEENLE

HTRA2, O43464 = molecular target: HTRA2, O43464
Chain of HTRA2, O43464 (O43464 355-458): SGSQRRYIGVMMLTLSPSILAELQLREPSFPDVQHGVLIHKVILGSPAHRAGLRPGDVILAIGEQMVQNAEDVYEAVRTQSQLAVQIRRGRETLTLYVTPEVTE

SNTG2, Q9NY99 = molecular target: T6, SNTG2, Q9NY99
T6 sequence (Q9NY99 68-166, limits assumed, looked up): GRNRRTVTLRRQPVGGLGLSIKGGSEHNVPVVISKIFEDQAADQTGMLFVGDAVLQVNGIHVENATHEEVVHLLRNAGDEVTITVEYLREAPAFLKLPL

APBA2_1, Q99767 = molecular target: T7, APBA2_1, Q99767
T7 sequence (Q99767 563-664, limits assumed, looked up): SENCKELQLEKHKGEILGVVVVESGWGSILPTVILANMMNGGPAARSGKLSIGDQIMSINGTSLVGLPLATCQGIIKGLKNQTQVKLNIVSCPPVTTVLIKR

TJP1_2, Q07157 = molecular target: TJP1_2, Q07157
Chain of TJP1_2, Q07157 (Q07157 181-274): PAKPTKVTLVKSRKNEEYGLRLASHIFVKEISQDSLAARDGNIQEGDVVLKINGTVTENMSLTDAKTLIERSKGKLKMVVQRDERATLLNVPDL

PTPN3, P26045 = molecular target: PTPN3, P26045
Chain of PTPN3, P26045 (P26045 505-587): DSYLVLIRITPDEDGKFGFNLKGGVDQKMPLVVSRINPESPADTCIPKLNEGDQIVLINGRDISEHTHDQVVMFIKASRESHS

GIPC2, Q8TF65 = molecular target: GIPC2, Q8TF65
Chain of GIPC2, Q8TF65 (Q8TF65 112-203): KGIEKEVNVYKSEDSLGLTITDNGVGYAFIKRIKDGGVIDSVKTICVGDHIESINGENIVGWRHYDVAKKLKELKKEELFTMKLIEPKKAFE

Inadl_4, Q8NI35 = details: plain residues with an end cap or a label only (N-terminal biotin on a linker: ttds)
Chain of Inadl_4, Q8NI35 (Q8NI35 547-651): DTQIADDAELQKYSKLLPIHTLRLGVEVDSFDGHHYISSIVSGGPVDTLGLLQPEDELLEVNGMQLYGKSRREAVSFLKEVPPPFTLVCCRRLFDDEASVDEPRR

LNX1_3, Q8TBB1 = molecular target: LNX1_3, Q8TBB1
Chain of LNX1_3, Q8TBB1 (Q8TBB1 500-596): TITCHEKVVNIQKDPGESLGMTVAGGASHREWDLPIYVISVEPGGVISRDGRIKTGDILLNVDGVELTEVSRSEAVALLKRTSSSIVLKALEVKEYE

NHERF3_1, Q5T2W1 = molecular target: T8, NHERF3_1, Q5T2W1
T8 sequence (Q5T2W1 4-100, limits assumed, looked up): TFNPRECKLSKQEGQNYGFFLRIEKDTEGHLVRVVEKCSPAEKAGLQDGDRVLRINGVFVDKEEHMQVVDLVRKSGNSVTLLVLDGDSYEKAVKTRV

PDZRN4_1, Q6ZMN7 = details: plain residues with an end cap or a label only (N-terminal biotin on a linker: ttds)
Chain of PDZRN4_1, Q6ZMN7 (Q6ZMN7 213-318): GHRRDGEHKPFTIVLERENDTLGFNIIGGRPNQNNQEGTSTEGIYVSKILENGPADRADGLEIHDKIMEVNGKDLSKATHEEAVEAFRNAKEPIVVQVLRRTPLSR

ARHGAP21, Q5T5U3 = molecular target: T9, ARHGAP21, Q5T5U3
T9 sequence (Q5T5U3 45-169, limits assumed, looked up): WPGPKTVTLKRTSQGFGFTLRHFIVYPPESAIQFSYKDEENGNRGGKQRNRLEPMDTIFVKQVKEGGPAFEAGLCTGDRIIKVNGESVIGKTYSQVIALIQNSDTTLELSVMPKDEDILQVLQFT

GRID2IP_1, A4D2P6 = details: plain residues with an end cap or a label only (N-terminal biotin on a linker: ttds)
Chain of GRID2IP_1, A4D2P6 (A4D2P6 1-87): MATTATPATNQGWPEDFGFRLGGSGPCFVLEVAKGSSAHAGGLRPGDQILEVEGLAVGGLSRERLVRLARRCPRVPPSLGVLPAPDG

GRIP2_7, Q9C0E4 = details: plain residues with an end cap or a label only (N-terminal biotin on a linker: ttds)
Chain of GRIP2_7, Q9C0E4 (Q9C0E4 934-1023): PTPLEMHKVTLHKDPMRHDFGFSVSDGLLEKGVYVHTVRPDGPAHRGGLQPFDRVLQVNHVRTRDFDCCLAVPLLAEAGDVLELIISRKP

MAGI2_6, Q86UL8 = details: plain residues with an end cap or a label only (N-terminal biotin on a linker: ttds)
Chain of MAGI2_6, Q86UL8 (Q86UL8 1141-1229): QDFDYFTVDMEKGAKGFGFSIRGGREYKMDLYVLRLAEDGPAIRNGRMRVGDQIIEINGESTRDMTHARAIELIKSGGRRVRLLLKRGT

MAGI3_2, Q5TCQ9 = details: plain residues with an end cap or a label only (N-terminal biotin on a linker: ttds)
Chain of MAGI3_2, Q5TCQ9 (Q5TCQ9 398-503): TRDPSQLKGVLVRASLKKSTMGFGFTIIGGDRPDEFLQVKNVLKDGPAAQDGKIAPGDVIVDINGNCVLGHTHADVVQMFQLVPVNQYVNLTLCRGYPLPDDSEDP

IL16_4, Q14005 = molecular target: IL16_4, Q14005
Chain of IL16_4, Q14005 (Q14005 1229-1329): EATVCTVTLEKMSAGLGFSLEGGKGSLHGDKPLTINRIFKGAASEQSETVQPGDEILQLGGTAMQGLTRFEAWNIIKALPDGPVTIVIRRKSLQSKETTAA

[1] = plain residues with an end cap or a label only (N-terminal biotin on a linker: ttds)
[2] = plain residues with an end cap or a label only (N-terminal biotin on a linker: ado-ado)

SVWLRKETRV [CYSLTR2, Q9NS75]
pKd (TIAM2, Q8IVF5): below the threshold | pKd (LRRC7, Q96NW7; [1]): 3.65 | pKd (GRIP2_4, Q9C0E4; [1]): below the threshold | pKd (DFNB31_2, Q9P202): 3.73 | pKd (LNX2_2, Q8N448; [1]): 3.77 | pKd (GRIP2_3, Q9C0E4): below the threshold | pKd (DLG1_2, Q12959; [1]): 5.78 | pKd (Inadl_3, Q8NI35): below the threshold | pKd (HTRA1, Q92743): below the threshold | pKd (DFNB31_1, Q9P202; [1]): 4.03 | pKd (IL16_1, Q14005; [1]): 3.92 | pKd (MAST2, Q6P0Q8): 5.27 | pKd (Inadl_8, Q8NI35; [1]): 4.55 | pKd (HTRA2, O43464; [1]): 3.5 | pKd (SNTG2, Q9NY99; [1]): 5.09 | pKd (APBA2_1, Q99767; [1]): below the threshold | pKd (TJP1_2, Q07157; [1]): below the threshold | pKd (PTPN3, P26045; [1]): 4.68 | pKd (GIPC2, Q8TF65; [1]): below the threshold | pKd (Inadl_4, Q8NI35): below the threshold | pKd (LNX1_3, Q8TBB1; [1]): 3.46 | pKd (NHERF3_1, Q5T2W1; [1]): 4.8 | pKd (PDZRN4_1, Q6ZMN7): 4.76 | pKd (ARHGAP21, Q5T5U3; [1]): below the threshold | pKd (GRID2IP_1, A4D2P6): below the threshold | pKd (GRIP2_7, Q9C0E4): below the threshold | pKd (MAGI2_6, Q86UL8): 3.51 | pKd (MAGI3_2, Q5TCQ9): 5.75 | pKd (IL16_4, Q14005; [1]): below the threshold

RSLEEEESQL [GRASP, Q7Z6J2]
pKd (TIAM2, Q8IVF5): below the threshold | pKd (LRRC7, Q96NW7; [1]): below the threshold | pKd (GRIP2_4, Q9C0E4; [1]): 3.75 | pKd (DFNB31_2, Q9P202): 3.83 | pKd (LNX2_2, Q8N448; [1]): below the threshold | pKd (GRIP2_3, Q9C0E4): below the threshold | pKd (DLG1_2, Q12959; [1]): below the threshold | pKd (Inadl_3, Q8NI35): below the threshold | pKd (HTRA1, Q92743): 4.33 | pKd (DFNB31_1, Q9P202; [1]): 3.86 | pKd (IL16_1, Q14005; [1]): below the threshold | pKd (MAST2, Q6P0Q8): 5.6 | pKd (Inadl_8, Q8NI35; [1]): 3.71 | pKd (HTRA2, O43464; [1]): 3.69 | pKd (SNTG2, Q9NY99; [1]): below the threshold | pKd (APBA2_1, Q99767; [1]): below the threshold | pKd (TJP1_2, Q07157; [1]): below the threshold | pKd (PTPN3, P26045; [1]): 4.83 | pKd (GIPC2, Q8TF65; [1]): 4.17 | pKd (Inadl_4, Q8NI35): 3.83 | pKd (LNX1_3, Q8TBB1; [1]): below the threshold | pKd (NHERF3_1, Q5T2W1; [1]): 5.27 | pKd (PDZRN4_1, Q6ZMN7): 4.17 | pKd (ARHGAP21, Q5T5U3; [1]): 3.83 | pKd (GRID2IP_1, A4D2P6): below the threshold | pKd (GRIP2_7, Q9C0E4): below the threshold | pKd (MAGI2_6, Q86UL8): below the threshold | pKd (MAGI3_2, Q5TCQ9): 3.81 | pKd (IL16_4, Q14005; [1]): 3.54

SRPQRTQTQV [HPV67-E6, A4U7F2]
pKd (TIAM2, Q8IVF5): below the threshold | pKd (LRRC7, Q96NW7; [1]): below the threshold | pKd (GRIP2_4, Q9C0E4; [1]): below the threshold | pKd (DFNB31_2, Q9P202): below the threshold | pKd (LNX2_2, Q8N448; [1]): 3.6 | pKd (GRIP2_3, Q9C0E4): below the threshold | pKd (DLG1_2, Q12959; [1]): 5.01 | pKd (Inadl_3, Q8NI35): below the threshold | pKd (HTRA1, Q92743): below the threshold | pKd (DFNB31_1, Q9P202; [1]): below the threshold | pKd (IL16_1, Q14005; [1]): below the threshold | pKd (MAST2, Q6P0Q8): 5.27 | pKd (Inadl_8, Q8NI35; [1]): below the threshold | pKd (HTRA2, O43464; [1]): below the threshold | pKd (SNTG2, Q9NY99; [1]): 3.98 | pKd (APBA2_1, Q99767; [1]): below the threshold | pKd (TJP1_2, Q07157; [1]): below the threshold | pKd (PTPN3, P26045; [1]): 3.95 | pKd (GIPC2, Q8TF65; [1]): below the threshold | pKd (Inadl_4, Q8NI35): below the threshold | pKd (LNX1_3, Q8TBB1; [1]): below the threshold | pKd (NHERF3_1, Q5T2W1; [1]): 3.98 | pKd (PDZRN4_1, Q6ZMN7): 3.82 | pKd (ARHGAP21, Q5T5U3; [1]): below the threshold | pKd (GRID2IP_1, A4D2P6): below the threshold | pKd (GRIP2_7, Q9C0E4): below the threshold | pKd (MAGI2_6, Q86UL8): below the threshold | pKd (MAGI3_2, Q5TCQ9): 5.42 | pKd (IL16_4, Q14005; [1]): below the threshold

KSRVAFFEEL [NF2, P35240]
pKd (LRRC7, Q96NW7; [2]): 3.5 | pKd (GRIP2_4, Q9C0E4; [2]): 3.73 | pKd (DLG1_2, Q12959; [2]): 3.5 | pKd (DFNB31_1, Q9P202; [2]): 3.64 | pKd (IL16_1, Q14005; [2]): 3.5 | pKd (HTRA2, O43464; [2]): 3.61 | pKd (SNTG2, Q9NY99; [2]): 3.74 | pKd (APBA2_1, Q99767; [2]): 3.54 | pKd (TJP1_2, Q07157; [2]): 3.51 | pKd (GIPC2, Q8TF65; [2]): 3.48 | pKd (LNX1_3, Q8TBB1; [2]): 3.61 | pKd (IL16_4, Q14005; [2]): 3.68

KRPEMTSSSV [MUC3B, MUC3A, Q02505;Q9H195]
pKd (LNX2_2, Q8N448; [2]): below the threshold | pKd (DLG1_2, Q12959; [2]): 4.06 | pKd (DFNB31_1, Q9P202; [2]): 4.24 | pKd (IL16_1, Q14005; [2]): 3.94 | pKd (Inadl_8, Q8NI35; [2]): 4.63 | pKd (SNTG2, Q9NY99; [2]): 3.9 | pKd (TJP1_2, Q07157; [2]): below the threshold | pKd (PTPN3, P26045; [2]): 4.55 | pKd (NHERF3_1, Q5T2W1; [2]): 3.85 | pKd (ARHGAP21, Q5T5U3; [2]): 1.86
